Assay results from patent publication US20220143145A1.

Legend:
[1] = biological target: IL10 receptor (IL10Rα) on mouse sensory neurons (mouse) (UniProt Q61727); experiment: cell-based or functional assay
[2] = biological target: IL4 receptor (IL4Rα) on mouse sensory neurons (mouse) (UniProt P16382); experiment: cell-based or functional assay
Chain of UniProt P16382 (P16382 26-810): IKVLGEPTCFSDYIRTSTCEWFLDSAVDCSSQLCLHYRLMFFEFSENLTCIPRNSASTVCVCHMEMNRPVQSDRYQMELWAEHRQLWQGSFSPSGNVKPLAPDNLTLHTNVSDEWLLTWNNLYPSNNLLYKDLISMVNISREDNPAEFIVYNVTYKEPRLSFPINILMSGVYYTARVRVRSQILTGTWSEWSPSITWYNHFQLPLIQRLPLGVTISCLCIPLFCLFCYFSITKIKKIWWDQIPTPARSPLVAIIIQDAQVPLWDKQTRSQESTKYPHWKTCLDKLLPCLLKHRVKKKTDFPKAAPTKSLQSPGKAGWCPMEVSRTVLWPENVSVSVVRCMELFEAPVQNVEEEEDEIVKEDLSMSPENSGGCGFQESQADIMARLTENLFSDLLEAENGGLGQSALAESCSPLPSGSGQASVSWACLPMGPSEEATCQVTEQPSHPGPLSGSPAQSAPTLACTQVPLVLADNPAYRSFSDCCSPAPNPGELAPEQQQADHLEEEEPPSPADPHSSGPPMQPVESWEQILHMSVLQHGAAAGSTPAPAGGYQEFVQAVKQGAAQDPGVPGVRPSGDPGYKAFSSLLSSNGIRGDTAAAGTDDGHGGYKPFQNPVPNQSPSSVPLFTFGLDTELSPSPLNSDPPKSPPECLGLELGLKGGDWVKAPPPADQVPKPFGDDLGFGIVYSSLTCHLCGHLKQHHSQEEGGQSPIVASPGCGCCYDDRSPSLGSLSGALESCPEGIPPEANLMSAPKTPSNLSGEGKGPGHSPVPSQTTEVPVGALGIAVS

Chain of UniProt Q61727 (Q61727 17-575): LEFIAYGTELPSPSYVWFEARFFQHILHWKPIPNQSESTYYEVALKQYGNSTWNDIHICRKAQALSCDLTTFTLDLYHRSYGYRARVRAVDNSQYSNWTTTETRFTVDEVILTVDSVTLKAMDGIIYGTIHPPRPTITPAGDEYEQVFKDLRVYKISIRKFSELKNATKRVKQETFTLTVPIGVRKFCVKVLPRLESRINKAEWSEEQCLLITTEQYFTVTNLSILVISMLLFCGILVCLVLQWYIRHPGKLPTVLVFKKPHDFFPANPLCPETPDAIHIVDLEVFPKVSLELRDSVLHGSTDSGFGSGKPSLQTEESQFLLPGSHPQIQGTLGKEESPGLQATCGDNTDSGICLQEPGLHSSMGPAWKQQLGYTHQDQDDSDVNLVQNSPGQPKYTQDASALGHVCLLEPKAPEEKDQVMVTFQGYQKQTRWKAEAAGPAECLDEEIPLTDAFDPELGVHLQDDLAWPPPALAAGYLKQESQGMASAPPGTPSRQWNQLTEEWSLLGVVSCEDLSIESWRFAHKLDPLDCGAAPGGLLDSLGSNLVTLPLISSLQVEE

IL4-10 fusion protein (ligand)
concentration that completely reversed TNFα-induced sensitization of capsaicin-evoked calcium influx [1]: 3 nM
concentration that completely reversed TNFα-induced sensitization of capsaicin-evoked calcium influx [2]: 3 nM
